One block for each binder: values may come before it. *1 amine or outer side, *2 acyl side, *3 side chain or, on linkers, in order; H or OH if unused. [ ]: non-standard residue; d: D form. Lys(DOTA) = Lys with DOTA chelator on the side chain; Oic = O=C(O)[C@@H]1C[C@@H]2CCCC[C@@H]2N1; d2Nal = N[C@H](Cc1ccc2ccccc2c1)C(=O)O; Glutaryl = O=C(CCCC(=O)[*:2])[*:1]; αMeF = C[C@](N)(Cc1ccccc1)C(=O)O; Ttds = non-natural spacer; Orn = NCCC[C@H](N)C(=O)O; 1206 = not defined here; GABA = NCCCC(=O)O
Target: T1, bradykinin B1 receptor (human) (UniProt P46663)
T1 sequence (looked up): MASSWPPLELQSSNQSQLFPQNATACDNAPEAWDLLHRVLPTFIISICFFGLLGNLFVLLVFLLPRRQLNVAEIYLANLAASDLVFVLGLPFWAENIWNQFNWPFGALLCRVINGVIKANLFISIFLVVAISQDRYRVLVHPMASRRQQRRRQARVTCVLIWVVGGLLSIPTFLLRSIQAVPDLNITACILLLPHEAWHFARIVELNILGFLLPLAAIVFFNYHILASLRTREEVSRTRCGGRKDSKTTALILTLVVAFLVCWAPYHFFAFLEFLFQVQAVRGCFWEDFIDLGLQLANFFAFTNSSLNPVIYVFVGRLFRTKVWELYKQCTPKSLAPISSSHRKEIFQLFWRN
Assay: radioligand displacement: 0.35 nM [3H]desArg10-KD on human B1R from CHO cells, compound at 100 nM

Inhibition [at 100 nM, %]: 17%
B1: 1206-Glutar-Ttds-Lys(DOTA)-Ttds-GABA-Orn-Arg-Oic-Pro-Gly-Amf-Ser-nal-Ile-OH (peptide)
peptide: {1206-Glutaryl-Ttds-Lys(DOTA)-Ttds-GABA}-[Orn]R[Oic]PG[αMeF]S[d2Nal]I-OH
modifications: reading uncertain; also: printed as 1206-Glutar-Ttds-Lys(DOTA)-Ttds-GABA-Orn-Arg-Oic-Pro-Gly-Amf-Ser-nal-Ile-OH

Inhibition [at 100 nM, %]: 20%
B2: 1206-Glutar-Ttds-Lys(DOTA)-Ttds-GABA-Lys-Arg-Pro-Hyp-Gly-Cha-Ser-Pro-Leu-OH (peptide)
peptide: KRPXGXSPL
modifications: position 4 = Hyp (hydroxyproline); position 6 = Cha (cyclohexylalanine); N-terminus of Lys1 acylated with 1206-Glutar-Ttds-Lys(DOTA)-Ttds-GABA- (1206 = non-peptide NTR1 antagonist moiety; DOTA on the Lys side chain); free C-terminal …
